From article PMC7378068

Target: T1, IL-1R1 (mouse IL-1R complex on HEK-Blue-IL1R cells) (mouse) (UniProt P13504)
T1 sequence: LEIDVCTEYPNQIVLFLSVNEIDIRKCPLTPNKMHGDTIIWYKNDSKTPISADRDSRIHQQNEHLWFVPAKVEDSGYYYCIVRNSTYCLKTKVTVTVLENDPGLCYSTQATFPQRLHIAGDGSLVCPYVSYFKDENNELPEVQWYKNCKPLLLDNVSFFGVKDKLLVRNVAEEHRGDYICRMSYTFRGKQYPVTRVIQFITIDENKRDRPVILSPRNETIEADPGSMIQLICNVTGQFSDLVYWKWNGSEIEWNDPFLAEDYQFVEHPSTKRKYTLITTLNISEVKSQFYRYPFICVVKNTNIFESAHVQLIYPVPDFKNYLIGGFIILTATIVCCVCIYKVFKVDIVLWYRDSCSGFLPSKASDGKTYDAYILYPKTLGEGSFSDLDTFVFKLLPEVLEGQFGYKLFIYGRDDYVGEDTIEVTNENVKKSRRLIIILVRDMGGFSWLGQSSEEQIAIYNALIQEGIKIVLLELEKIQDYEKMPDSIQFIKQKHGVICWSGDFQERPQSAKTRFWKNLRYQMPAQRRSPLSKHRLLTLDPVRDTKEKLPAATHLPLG

Question: With “human IL-1β mutant Q148G (from UniProt P01584 117-269) (ligand)” as the substance, how does the NF-κB-driven expression of a luciferase reporter in HEK-Blue-IL1R cells; fold reduction in activity compared with WT IL-1β read?
Answer: 168 fold
